Measurements from patent publication US7074765B2, “Synthetic peptide analogs of Arg-Pro-Pro-Gly-Phe as selective inhibitors of thrombin and thrombin activation of protease activated receptors 1 and 4” (The Regents of the University of Michigan, priority 2003, dated 2006).
Where two headings read alike, the source gives them in different places. Ends that are not written are not given here.

Assays:
[1] = molecular target: T1, recombinant protease activated receptor 1 extracellular domain (rPAR1EC) (Homo sapiens, UniProt P25116); experiment: Inhibition of RPPGF-biotin binding to rPAR1EC; settings: 5 mM peptide, 50 μM RPPGF-biotin (FIG. 7); listed in decreasing order
T1 construct: A portion of the extracellular domain of human PAR1 (Ala^26-Ser^99) (rPAR1EC) was expressed in Escherichia coli; His10-DDDDK (pET19b) (N); made in house; host or cells: E. coli BL21(DE3), pET19b
T1 sequence (P25116 26-99): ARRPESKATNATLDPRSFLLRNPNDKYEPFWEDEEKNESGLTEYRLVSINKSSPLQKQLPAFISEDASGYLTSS

[2] = molecular target: T2, SILPAPRGYPGQ, thrombin binding and cleaving region on human PAR4 (Homo sapiens, UniProt Q96RI0); experiment: Inhibition of SILPAPRGYPGQ-biotin binding to RPPGC; settings: 10 micromolar biotinylated-SIL12; 0.001 to 5 mM peptide
T2 construct: host or cells: synthetic peptide
Protocol: Investigations were performed to determine if the compounds in the present invention interact with human PAR4. In FIG. 11, RPPGC (SEQ ID NO:10) was bound to plastic microtiter plates, After washing, biotinylated-[…] (SEQ ID NO:14) was incubated with the cuvette wells in the absence or presence of 0.001 to 5 mM RPPGF (SEQ ID NO:4), TH146, TH26, SIL12 (SEQ ID NO:9), or a scrambled peptide of RPPGF, FPRPG (Phe-Pro-Arg-Pro-Gly, SEQ ID NO:21). Peptide […]

[3] = test system: normal human lung fibroblasts (NHLF); experiment: α-thrombin-induced calcium mobilization in fibroblasts; type: cell-based; settings: 0.1 mM peptide; α-thrombin-induced calcium mobilization in fibroblasts
Protocol: The second assay developed to assess peptides from the combinatorial libraries uses inhibition of α-thrombin-induced calcium mobilization in fibroblasts. Normal human lung fibroblasts (NHLF) were purchased from Clonetics, San Diego, Calif., an affiliate of Bio-Wittaker, Walkersville, Md. The cytoplasmic free Ca^2+ concentration ([Ca^2+]i) was measured using the fluorescent Ca^2+ indicator fura-2 (Molecular Probes, Inc., Eugene, Oreg.). Suspension of fibroblasts in Hepes-Tyrode's buffer were loaded with fura-2 by incubation at 37° C. with 2 μM fura-2/acetoxymethyl ester for 45 minutes according to the method of Rasmussen et al., J. Biol. Chem. 268, 14322 (1993). The labeled fibroblasts were separated from excess probe by washing by centrifugation at 1000 rpm (180×g). Aliquots of the labeled fibroblasts were transferred into a quartz cuvette with a magnetic stirrer, which was then placed in a thermostatically controlled chamber at 37° C. in a fluorescence spectrophotometer (Perkin-Elmer LS50B spectrofluorometer, Chicago, Ill.). Reagents, test peptide, and α-thrombin (0.25–2 nM), were sequentially added directly to the cuvette. The excitation wavelengths varied between 340 and 380 nm. Fluorescence was measured by recording emitted light at 510 nm as reported by Fisher et al., Mol Pharm. 35, 195 (1989). The minimum emission was determined on a solubilized fibroblast sample in the presence of 10 mM EDTA; maximum emission was determined on the same sample with 10 mM Ca^2+ added. The intrafibroblast free Ca^2+ concentration was calculated by the method of Grykiewicz et al., J. Biol. Chem. 260, 3440 (1985). […] The KD for fura-2 was assumed to be 224 nM. Rmax and Rmin are the maximum and minimum fluorescence ratios measured at the end of the experiment, respectively; Sf2 and Sb2 are the fluorescence values at 380 nm in the absence and presence of saturating [Ca^2+], respectively. The reaction was monitored for 3–5 minutes.

[4] = test system: platelet activation and deposition; settings: ex vivo balloon injury; similar to aspirin; cited from earlier work
[5] = molecular target: T3, recombinant extracellular fragment of human protease activated receptor 4 (rPAR4EC) (Homo sapiens, UniProt Q96RI0); experiment: Inhibition of RPPGF-biotin binding to rPAR4EC; settings: 5 mM peptide; 50 μM RPPGF-biotin
T3 construct: starting with Gly^18, the first amino acid after the signal peptide is removed, and finishing with Arg^78; made in house; host or cells: E. coli BL21, pET19b-PAR4
T3 sequence (Q96RI0 18-78): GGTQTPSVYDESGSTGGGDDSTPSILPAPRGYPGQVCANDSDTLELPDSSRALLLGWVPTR
Excerpt: The extracellular fragment of human PAR4 has been expressed in bacteria. Human erythroleukemia (HEL) cells were used as a source for PAR4 mRNA. The level of PAR4 mRNA was substantially higher in HEL cells than washed human platelets. […] These primers give a 204 basepair fragment which code for a 61 amino acid hPAR4 protein starting with Gly^18, the first amino acid after the signal peptide is removed, and finishing with Arg^78, the last amino acid of the extracellular fragment (Xu et al. Proc. Natl. Acad. Sci. 95, 6642–6646 (1998)). The pET19b-PAR4 vector after cloning was used to transform BL21 cells to express the recombinant protein. The expressed recombinant protein was purified on a DEAE Sephadex followed by a nickel affinity column (the recombinant protein has a 10 His-tag on its amino terminal end). The isolated, recombinant extracellular domain of PAR4 (rPAREC) is about 15 kDa on 16.5% Tris-Tricine SDS-PAGE. The recombinant protein is recognized as being human PAR4 by detection with an antibody prepared from a peptide (S^41[…]^52) (SEQ ID NO:9) from human PAR4EC. Recombinant PAR4EC was linked to microtiter plate cuvette wells. Goat polyclonal antibody to human PAR1, PAR3, or PAR4 was incubated with the coated microtiter plate cuvette wells and antibody binding was detected. Only antibody to PAR4 detected rPAR4EC linked to the microtiter plate wells. […]

[6] = molecular target: T4, α-thrombin cleavage of recombinant extracellular fragment of human PAR1 (rPAR1EC) (Homo sapiens, UniProt P00734); experiment: Inhibition of α-thrombin-induced cleavage of rPAR1EC; type: biochemical
T4 construct: A portion of the extracellular domain of human PAR1 (Ala^26-Ser^99) (rPAR1EC) was expressed in Escherichia coli; with 1 nM of α-thrombin or 0.5 μg/mL thrombocytin (16.7 nM); His10-DDDDK (pET19b) (N); made in house; host or cells: E. coli BL21(DE3), pET19b (rPAR1EC)
Protocol: (§1) Thrombocytin is a snake venom enzyme that activates platelets by cleaving PAR1 at the thrombin cleavage site (Santos et al., FEBS Letters. 18, 3570–3577 (2000)). […] The ability of MAP4-rOicPGF to block thrombocytin cleavage of rPAR1EC was performed as follows. One μg of rPAR1EC in 0.01 mM Tris-HCL, 0.2 M NaCl, pH 8.0 was incubated at 37° C. for 15 min or 45 min with 1 nM of α-thrombin or 0.5 μg/mL thrombocytin (16.7 nM), respectively, in the absence or presence of 0.025 to 1 mM MAP4-rOicPGF. The reaction mixture was separated on SDS-PAGE and stained with Coomassie Brilliant Blue. The cleaved gel images were scanned using the software Scion Image, ScionCorp, Frederick, Md.

[7] = test system: coronary thrombosis; settings: canine electrolytic injury model; similar to aspirin treatment; cited from earlier work
[8] = test system: lipopolysaccharide-treated rats; settings: infusion; cited from earlier work
[9] = test system: mouse carotid artery; settings: cited from earlier work
[10] = molecular target: T5, thrombocytin cleavage of recombinant human PAR1 extracellular domain (Homo sapiens, UniProt P25116); experiment: Inhibition of thrombocytin-induced cleavage of rPAR1EC; type: biochemical; settings: 16.7 nM thrombocytin, 45 min, 37° C.; below concentration that blocks the enzyme's proteolytic activity
T5 construct: A portion of the extracellular domain of human PAR1 (Ala^26-Ser^99) (rPAR1EC) was expressed in Escherichia coli; His10-DDDDK (pET19b) (N); made in house; host or cells: E. coli BL21(DE3), pET19b (rPAR1EC)
T5 sequence (P25116 26-99): T1 sequence (P25116 26-99)
Protocol: as §1

[11] = molecular target: thrombin (Homo sapiens, UniProt P00734); settings: read-out: Ki (retrobinders to the active site of thrombin); cited from earlier work
[12] = test system: mouse platelets; settings: cited from earlier work
[13] = test system: cyclic flow variations; settings: Folt's model, canine; similar degree as aspirin or clopidogrel; cited from earlier work

Substance | blocking of RPPGF-biotin binding to rPAR1EC by peptides [1] | blocking of biotinylated-SILPAPRGYPGQ binding to RPPGC [2] | Ca^2^+ % Inhibition At 0.1 mM Peptide [3] | platelet activation and deposition [4] | blocking of RPPGF-biotin binding to rPAR4EC [5] | effect on α-thrombin cleavage of rPAR1EC [6] | effect on coronary thrombosis [7] | time to death [8] | time to thrombosis of the mouse carotid artery [9] | concentration that blocks thrombocytin cleavage of rPAR1EC [10] [mM] | Ki [11] [mM] | mouse platelet aggregation [12] | effect on α-thrombin cleavage of rPAR1EC ([6]; 1 nM α-thrombin, 15 min, 37° C.) | effect on cyclic flow variations [13]
rPPGF (RPPGF; not fully specified (residue 1); printed as rPPGF) [Arg-Pro-Pro-Gly-Phe, peptide of the RPPGF analog library] | blocked | blocked | No Effect | reduced platelet activation and deposition | block | prevents these enzymes from cleaving rPAR1EC | prevents coronary thrombosis | delays the time to death |  |  |  |  |  | 
β-Ala-Lys-2Lys-4(Arg-Pro-Pro-Gly-Phe) (RPPGF; also: four copies on beta-Ala-Lys-2Lys-4 branched core) [MAP4-RPPGF, four-branched peptide of RPPGF on a β-alanine-lysine core] | blocked |  |  |  |  |  |  |  | delays the time to thrombosis | 0.2 to 0.5 | 1.75 | inhibits mouse platelet aggregation | prevents these enzymes from cleaving rPAR1EC | prevents cyclic flow variations
